PMC7529148 (Nature structural & molecular biology, 2020)

B1: ClpA (enzyme, E. coli, UniProt P0ABH9 1-758, looked up)
chain: MLNQELELSLNMAFARAREHRHEFMTVEHLLLALLSNPSAREALEACSVDLVALRQELEAFIEQTTPVLPASEEERDTQPTLSFQRVLQRAVFHVQSSGRNEVTGANVLVAIFSEQESQAAYLLRKHEVSRLDVVNFISHGTRKDEPTQSSDPGSQPNSEEQAGGEERMENFTTNLNQLARVGGIDPLIGREKELERAIQVLCRRRKNNPLLVGESGVGKTAIAEGLAWRIVQGDVPEVMADCTIYSLDIGSLLAGTKYRGDFEKRFKALLKQLEQDTNSILFIDEIHTIIGAGAASGGQVDAANLIKPLLSSGKIRVIGSTTYQEFSNIFEKDRALARRFQKIDITEPSIEETVQIINGLKPKYEAHHDVRYTAKAVRAAVELAVKYINDRHLPDKAIDVIDEAGARARLMPVSKRKKTVNVADIESVVARIARIPEKSVSQSDRDTLKNLGDRLKMLVFGQDKAIEALTEAIKMARAGLGHEHKPVGSFLFAGPTGVGKTEVTVQLSKALGIELLRFDMSEYMERHTVSRLIGAPPGYVGFDQGGLLTDAVIKHPHAVLLLDEIEKAHPDVFNILLQVMDNGTLTDNNGRKADFRNVVLVMTTNAGVRETERKSIGLIHQDNSTDAMEEIKKIFTPEFRNRLDNIIWFDHLSTDVIHQVVDKFIVELQVQLDQKGVSLEVSQEARNWLAEKGYDRAMGARPMARVIQDNLKKPLANELLFGSLVDGGQVTVALDKEKNELTYGFQSAQKHKAEAAH

Legend:
cryo-EM structure = target: the molecule itself; assay: cryo-EM structure
ClpA = target: B1; assay: cryo-EM structure

| Binder | stoichiometry N (cryo-EM structure) | binding result (ClpA) |
| --- | --- | --- |
| ClpP (enzyme) not shown | 14 | binds |
| B1 | 6 | – |
